Target: T1, ubiquitin monomer (S. cerevisiae (yeast lysate), UniProt P0CG63 1-76)
T1 construct: mature; Endogenous monomer of the yeast lysate, seen by western blot in the pull-down experiment; also called monoubiquitin (free, in yeast lysate)
Experiment: pull-down from yeast lysate with biotinylated TR-TUBE and streptavidin beads, anti-ubiquitin western blot
Procedure: For Ub-ProT assay of yeast extracts, 30 OD₆₀₀ units of log-phase cells were harvested and lysed with glass beads in 300 μl of lysis buffer (50 mM Tris-HCl [pH 7.5], 100 mM NaCl, 10% glycerol, 10 μM MG132, 10 mM iodoacetamide, and 1× complete protease inhibitor cocktail [Roche, EDTA-free]). After centrifugation, the supernatant (100 μg) was incubated with TR-TUBE (10 μg) for 1 h at 4° C. Next, TR-TUBE-bound polyubiquitylated proteins were incubated with Dynabeads MyOne Streptavidin C1 (1 mg, Life Technologies) for 45 min at 4° C. The beads were washed three times with PBS-T, and then incubated in 100 μl of 50 mM AMBC, 0.01% Rapigest SF, and trypsin (1.5 μg) overnight at 37° C. […] After the beads were washed with PBS-T, the polyubiquitin chains were selectively eluted by 30-min incubation with 1× NuPAGE LDS sample buffer. The samples were directly subjected to electrophoresis on NuPAGE gels in order to avoid aggregation of polyubiquitin chains.
The inventors of the present invention next investigated the mean lengths of substrate-attached polyubiquitin chains in yeast lysate. To the knowledge of the inventors of the present invention, the actual chain lengths of polyubiquitylated proteins in vivo have not been previously determined. In this experiment, the inventors of the present invention used a drug-sensitive pdr5 mutant to determine the effect of a proteasome inhibitor, MG132. […]

T1 sequence (P0CG63 1-76 limits assumed): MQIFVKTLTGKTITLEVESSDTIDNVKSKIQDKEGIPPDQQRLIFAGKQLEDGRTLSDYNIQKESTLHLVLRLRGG

B1: trypsin-resistant tandem ubiquitin binding entity (TR-TUBE) (designed binder)
chain: MRGCHHHHHHGMASMTGGQQMGDIGGGGSGGGVNPQLQNPEVAFQQQLEQLSAMGFLNAEANLQALIATGGDINAAIEALLGSQPSGGGGSGGGVNPQLQNPEVAFQQQLEQLSAMGFLNAEANLQALIATGGDINAAIEALLGSQPSGGGGSGGGVNPQLQNPEVAFQQQLEQLSAMGFLNAEANLQALIATGGDINAAIEALLGSQPSGGGGSGGGVNPQLQNPEVAFQQQLEQLSAMGFLNAEANLQALIATGGDINAAIEALLGSQPSGGGGSGGGVNPQLQNPEVAFQQQLEQLSAMGFLNAEANLQALIATGGDINAAIEALLGSQPSGGGGSGGGVNPQLQNPEVAFQQQLEQLSAMGFLNAEANLQALIATGGDINAAIEALLGSQPSGGGGS
modifications: Cys residue upstream of the hexahistidine tag biotinylated with EZ-link Maleimide-PEG2-Biotin
notes: also called 6x TR-TUBE; biotinylated TR-TUBE
Q: Does B1 bind?
A: no binding
